Measured values published in patent US20150004162A1 (I2 PHARMACEUTICALS, published 2015).
Residue numbers refer to the chain shown, from its start.

T1: DcR1 (human, UniProt O14798 24-159, limits assumed)
T1 construct: Recombinant protein coated on wells; also called decoy receptor DcR1
T1 sequence: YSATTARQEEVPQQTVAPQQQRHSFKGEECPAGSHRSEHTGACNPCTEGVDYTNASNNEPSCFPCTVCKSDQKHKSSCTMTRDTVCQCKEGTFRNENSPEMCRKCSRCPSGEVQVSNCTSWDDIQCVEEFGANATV

T2: DcR2 (human, UniProt Q9UBN6 56-189, limits assumed)
T2 construct: Recombinant protein coated on wells; also called decoy receptor DcR2
T2 sequence: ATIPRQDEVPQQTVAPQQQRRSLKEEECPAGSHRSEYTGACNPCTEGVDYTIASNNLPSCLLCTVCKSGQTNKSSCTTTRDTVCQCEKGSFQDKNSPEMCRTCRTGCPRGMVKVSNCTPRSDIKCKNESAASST

T3: human DR4 (human, UniProt O00220 24-239, limits assumed)
T3 construct: Recombinant DR4 coated on ELISA wells; also called death receptor 4; TRAIL-R1
T3 sequence: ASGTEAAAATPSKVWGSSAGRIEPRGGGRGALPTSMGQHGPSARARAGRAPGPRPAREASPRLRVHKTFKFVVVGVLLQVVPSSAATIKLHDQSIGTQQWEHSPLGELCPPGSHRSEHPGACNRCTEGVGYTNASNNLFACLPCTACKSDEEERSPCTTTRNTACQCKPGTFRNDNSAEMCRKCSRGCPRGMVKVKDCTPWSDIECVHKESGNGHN

T4: mouse DR5-Fc (mouse, UniProt Q9QZM4 53-177, limits assumed)
T4 construct: also called mouse death receptor; not shown: Fc part
T4 sequence (looked up): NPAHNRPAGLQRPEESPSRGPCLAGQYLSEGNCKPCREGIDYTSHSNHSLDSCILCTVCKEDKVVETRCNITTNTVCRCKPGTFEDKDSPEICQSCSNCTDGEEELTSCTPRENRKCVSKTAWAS

T5: DR4 on Ramos cells (human, UniProt O00220 24-468)
T5 sequence (looked up): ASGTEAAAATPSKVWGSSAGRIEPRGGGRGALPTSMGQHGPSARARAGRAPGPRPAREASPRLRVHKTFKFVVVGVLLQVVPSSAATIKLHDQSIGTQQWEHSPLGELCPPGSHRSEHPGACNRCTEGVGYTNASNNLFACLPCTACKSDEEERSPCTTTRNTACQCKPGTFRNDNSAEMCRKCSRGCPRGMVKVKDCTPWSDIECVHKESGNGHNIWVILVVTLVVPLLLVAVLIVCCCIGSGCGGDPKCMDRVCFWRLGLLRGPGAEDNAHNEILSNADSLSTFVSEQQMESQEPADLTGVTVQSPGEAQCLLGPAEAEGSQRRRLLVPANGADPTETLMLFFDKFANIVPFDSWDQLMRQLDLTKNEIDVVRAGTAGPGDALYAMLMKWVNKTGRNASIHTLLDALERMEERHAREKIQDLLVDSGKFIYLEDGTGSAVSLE

T6: Rhesus (NHP-2) DR4-Fc (Rhesus, UniProt F6TP00 24-239)
T6 construct: also called Rhesus DR4-Fc
T6 sequence: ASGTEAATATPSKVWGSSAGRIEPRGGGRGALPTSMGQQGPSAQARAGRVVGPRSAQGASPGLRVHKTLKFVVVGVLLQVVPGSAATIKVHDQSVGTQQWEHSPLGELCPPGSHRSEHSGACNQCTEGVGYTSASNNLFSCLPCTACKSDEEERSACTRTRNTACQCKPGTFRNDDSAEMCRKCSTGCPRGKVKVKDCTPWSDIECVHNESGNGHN

B1: 3631-G09 bivalent SBP (other)
VH: EVQLVESGGGLVKPGGSLRLSCAASGFTFSTYGMHWVRQAPGKGLEWVAGINYSGNNKYYADSVKGRFTISRDNAKNSLYLQMNSLRAEDTAVYYCARDHSTWLSRHLDYWGQGTLVTVSS
surrogate light: QPVLHQPPAMSSALGTTIRLTCTLRNDHDIGVYSVYWYQQRPGHPPRFLLRYFSQSDKSQGPQVPPRFSGSKDVARNRGYLSISELQPEDEAMYYCAMGARSSVTHVFGSGTQLTVLSQPKATPSVTLFPPSSEELQANKATLVCLMNDFYPGILTVTWKADGTPITQGVEMTTPSKQSNNKYAASSYLSLTPEQWRSRRSYSCQVMHEGSTVEKTVAPAECS
notes: IgG1-like surroglobulin: full length heavy chain paired with surrogate light chain fusion 1, made in HEK293, Protein A purified; also called SL231; SL-231; copies: 2 + 2
B2: 3706-A02 (SL466) (other)
VH: B1 VH with H100S, W103T, L104R, S105T, H107A
light: B1 surrogate light
notes: Bivalent SBP (SgG); also called SgG

Columns and labels:
human DR5 [1] = molecular target: T7, human DR5 (human, UniProt O14763 52-183, limits assumed); test: ELISA, half-log dilutions on wells coated with 1 microgram/ml human DR5, anti-human Fc HRP
T7 construct: also called sDR5 (Peprotech); death receptor 5
T7 sequence (O14763 other isoform, or with tags, fused parts or gaps limits assumed): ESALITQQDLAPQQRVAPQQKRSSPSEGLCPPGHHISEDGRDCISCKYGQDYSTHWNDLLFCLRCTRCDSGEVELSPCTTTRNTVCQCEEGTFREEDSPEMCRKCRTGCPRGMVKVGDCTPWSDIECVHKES
Description: (§1) The bivalent SBP were detected using an anti-human Fc antibody conjugated to HRP.

DcR1 = molecular target: T1, DcR1; test: ELISA, bivalent SBP on TRAIL receptor family proteins [C]
Description: as §1

DcR2 = molecular target: T2, DcR2; test: as above
Description: as §1

human DR4 [2] = molecular target: T3, human DR4; test: antigen ELISA, half-log dilutions on coated human DR4, anti-human Fc-HRP
Description: as §1

Rhesus (NHP-2) DR5-Fc = molecular target: T8, Rhesus (NHP-2) DR5-Fc (Rhesus); test: ELISA, wells coated with 1 microgram/ml antigen, half-log dilutions, detection with anti-VpreB-HRP; inset table has no row label, the text calls the values half-maximal binding concentrations; unit from the axis Log[Agent] (nM) [panel D]
T8 construct: also called Rhesus DR5-Fc
Description: (§2) Streptavidin-HRP or a monoclonal anti-VpreB-HRP conjugated antibody was used for detection and the assay developed with a TMB solution.

human DR5 [3] = molecular target: T7, human DR5; test: antigen ELISA, half-log dilutions on coated human DR5, anti-human Fc-HRP
Description: as §1

mouse DR5-Fc = molecular target: T4, mouse DR5-Fc; test: ELISA, 100 ng/well mouse DR5-Fc, 10 nM bivalent SBP, detection HRP-aVpreB
DR4 on Ramos cells = molecular target: T5, DR4 on Ramos cells; test: cell-based or functional assay
human DR4 [4] = molecular target: T3, human DR4; test: ELISA, half-log dilutions on wells coated with 1 microgram/ml human DR4, anti-human Fc HRP
Description: as §1

Rhesus (NHP-2) DR4-Fc = molecular target: T6, Rhesus (NHP-2) DR4-Fc; test: ELISA, wells coated with 1 microgram/ml antigen, half-log dilutions, detection with anti-VpreB-HRP; inset table has no row label, the text calls the values half-maximal binding concentrations; unit from the axis Log[Agent] (nM) [panel C]
Description: as §2

[5] = molecular target: T9, Cynomolgus (NHP-1) DR5-Fc (Cynomolgus); test: ELISA, wells coated with 1 microgram/ml antigen, half-log dilutions of SgG, detection with anti-VpreB-HRP; unit taken from the axis Lg(nM) [panel B]
T9 construct: also called Cynomolgus DR5-Fc
Description: as §2

[6] = molecular target: T10, Cynomolgus (NHP-1) DR4-Fc (Cynomolgus); test: ELISA, wells coated with 1 microgram/ml antigen, half-log dilutions of SgG, detection with anti-VpreB-HRP; unit taken from the axis Lg(nM) [panel A]
T10 construct: also called Cynomolgus DR4-Fc
Description: as §2

Row | Binder | EC50 (human DR5 [1]) | binding result (DcR1) | binding result (DcR2) | EC50 (human DR4 [2]) | EC50 (Rhesus (NHP-2) DR5-Fc) | EC50 (human DR5 [3]) | binding result (mouse DR5-Fc) | EC50 (nM), inhibition of Ramos cell proliferation (WST-1), SgG cross-linked with anti-human-Fc antibody or Protein G (DR4 on Ramos cells) | EC50 (human DR4 [4]) | EC50 (Rhesus (NHP-2) DR4-Fc) | EC50 [5] | EC50 [6]
1 | B1 | 0.0502 nM | no binding (tested: 1000 nM) | no binding (tested: 1000 nM) | ~0.03 nM | 0.627 nM | 0.05 nM | no binding (tested: 10 nM) | 0.498 nM | 0.0298 nM |  |  | 
2 | B2 |  |  |  |  | 0.294 nM |  |  |  |  | 146 nM | 0.273 nM | 6.36 nM
